Source: paper PMC4304843, “Human Mitochondrial Hsp70 (Mortalin): Shedding Light on ATPase Activity, Interaction with Adenosine Nucleotides, Solution Structure and Domain Organization” (PLoS ONE, 2015)

Legend:
[1] = target: Human mitochondrial Hsp70 (mortalin), recombinant (human) (UniProt P38646); assay: SEC; analytical SEC (Superdex 200 GL 10/30, TKP buffer pH 7.5) of mortalin directly after Ni2+ affinity chromatography
[2] = test system: T1, Nc1ncnc2c1ncn2[C@@H]1O[C@H](COP(=O)(O)OP(=O)(O)OP(=O)(O)O)[C@@H](O)[C@H]1O; assay: ATPase, EnzChek phosphate assay, Michaelis-Menten fit; type: biochemical, Homo sapiens; conditions: TKP buffer without phosphate pH 7.5, 2 mM Mg2+, 37°C, no co-chaperone
T1 construct: monomeric SEC fraction, alkaline phosphatase treated
Excerpt: ATPase, EnzChek phosphate assay, Michaelis-Menten fit on human mortalin (mtHsp70, GRP75, HspA9, PBP74)

Chain of human mortalin (mtHsp70, GRP75, HspA9, PBP74) (Homo sapiens) (chain, as listed by the source): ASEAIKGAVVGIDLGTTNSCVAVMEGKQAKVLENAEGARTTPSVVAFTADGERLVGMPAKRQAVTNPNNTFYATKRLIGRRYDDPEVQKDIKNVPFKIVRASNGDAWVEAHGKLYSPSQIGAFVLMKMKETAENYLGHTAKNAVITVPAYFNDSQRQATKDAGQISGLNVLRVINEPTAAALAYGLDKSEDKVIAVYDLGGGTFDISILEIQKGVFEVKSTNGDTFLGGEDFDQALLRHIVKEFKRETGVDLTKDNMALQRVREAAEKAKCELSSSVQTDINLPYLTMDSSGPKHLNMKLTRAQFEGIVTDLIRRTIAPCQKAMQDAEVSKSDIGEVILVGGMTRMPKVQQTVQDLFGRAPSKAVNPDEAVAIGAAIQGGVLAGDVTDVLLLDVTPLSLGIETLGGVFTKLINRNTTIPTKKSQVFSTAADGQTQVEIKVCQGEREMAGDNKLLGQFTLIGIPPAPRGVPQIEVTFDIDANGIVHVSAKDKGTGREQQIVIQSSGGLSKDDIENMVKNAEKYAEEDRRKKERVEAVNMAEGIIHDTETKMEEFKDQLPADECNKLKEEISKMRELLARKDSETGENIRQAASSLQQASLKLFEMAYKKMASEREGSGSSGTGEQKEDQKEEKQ

Substance	stoichiometry N [1]	Km [2]	kcat [2]
Human mitochondrial Hsp70 (mortalin), recombinant (from UniProt P38646 47-679) (natural protein)	2		
human mortalin (mtHsp70, GRP75, HspA9, PBP74) (Homo sapiens)		190 ± 20 µM	0.00252 ± 3.33e-05 s⁻¹
